Measured values taken from PMC5555656 (Molecular Biology of the Cell, 2017).

Target: T1, hexahistidine (his6)-tagged Qc-SNARE Vam7 (yeast, UniProt P32912 1-316)
T1 sequence (looked up): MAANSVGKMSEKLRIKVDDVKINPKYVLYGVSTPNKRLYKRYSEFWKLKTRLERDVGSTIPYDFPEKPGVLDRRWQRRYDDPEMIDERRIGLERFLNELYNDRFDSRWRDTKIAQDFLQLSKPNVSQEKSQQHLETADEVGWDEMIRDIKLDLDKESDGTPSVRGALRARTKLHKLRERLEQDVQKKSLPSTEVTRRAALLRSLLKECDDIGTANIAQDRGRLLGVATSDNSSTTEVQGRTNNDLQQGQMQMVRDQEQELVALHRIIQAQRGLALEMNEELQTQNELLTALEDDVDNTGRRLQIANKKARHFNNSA
Assay: pull-down

binding result: binds
B1: yeast vacuolar R-SNARE Nyv1, membrane-anchored (natural protein, UniProt Q12255 1-253, looked up)
chain: MKRFNVSYVEVIKNGETISSCFQPFQKNENYGTITSANEQITPVIFHNLIMDMVLPKVVPIKGNKVTKMSMNLIDGFDCFYSTDDHDPKTVYVCFTLVDMPKILPIRILSGLQEYESNATNELLSSHVGQILDSFHEELVEYRNQTLNSSGNGQSSNGNGQNTISDIGDATEDQIKDVIQIMNDNIDKFLERQERVSLLVDKTSQLNSSSNKFRRKAVNIKEIMWWQKVKNITLLTFTIILFVSAAFMFFYLW
